Experiment [1] concerns the target T1, human CD38 Protein (ECD, His Tag) (human, UniProt P28907 43-300).
T1 construct: extracellular domain; Commercial recombinant antigen coated on the ELISA plate at 0.5 ug/ml; also called 未标记抗原; not shown: His tag
T1 sequence (looked up): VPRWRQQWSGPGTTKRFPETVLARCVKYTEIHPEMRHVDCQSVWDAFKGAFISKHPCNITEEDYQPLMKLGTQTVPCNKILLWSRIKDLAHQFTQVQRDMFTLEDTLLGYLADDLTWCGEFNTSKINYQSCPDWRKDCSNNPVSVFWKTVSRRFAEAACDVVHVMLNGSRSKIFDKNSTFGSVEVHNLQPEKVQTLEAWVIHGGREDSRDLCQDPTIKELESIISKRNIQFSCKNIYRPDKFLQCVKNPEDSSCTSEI
The experiment is described as follows: ELISA, human CD38 ECD-His coated on plate, detection with HRP goat anti-mouse IgM, OD450.

In the next experiment the target is T2, mono-Mac-6细胞表面的CD38 (UniProt P28907 1-300, limits assumed).
T2 construct: whole, on cells; also called CD38 on mono-Mac-6 cells
T2 sequence (looked up): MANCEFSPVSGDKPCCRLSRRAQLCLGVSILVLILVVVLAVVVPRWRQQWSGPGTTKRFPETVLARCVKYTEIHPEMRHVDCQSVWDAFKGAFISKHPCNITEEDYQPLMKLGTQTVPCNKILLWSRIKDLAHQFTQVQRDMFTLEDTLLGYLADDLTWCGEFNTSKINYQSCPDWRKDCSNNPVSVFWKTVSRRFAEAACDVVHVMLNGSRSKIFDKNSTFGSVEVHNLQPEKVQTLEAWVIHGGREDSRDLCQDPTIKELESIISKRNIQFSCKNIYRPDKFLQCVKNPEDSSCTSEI
The experiment is described as follows: flow cytometry on mono-Mac-6 cells, antibody production supernatant, APC anti-IgM secondary antibody.

B1: 单克隆抗体70B5 (抗CD38的单克隆抗体) (antibody, V domains shown)
VH: EVQLQQSGPELVKPGASVKISCKASGYTFTDYYMNWVKQSHGKSLEWIGDINPNNGGTSYNQKFKGKATLTVDKSSSTAYMELRSLTSEDSAVYYCARGYYSNPFDVWGTGTTVTVSS
VL: DIQMTQSPSSLSASLGERVSLTCRASQDIGSSLNWLQQEPDGTIKRLIYATSSLDSGVPKRFSGSRSGSDYSLTISSLESEDFVDYYCLQYASSPLTFGAGTKLELK
notes: also called 70B5抗体
For B1, the binding result (in experiment [1]; with mono-Mac-6细胞表面的CD38) was “binds” each time.

(Values after patent CN114409788A (WEST CHINA HOSPITAL OF SICHUAN UNIV, dated 2022).)
